Assay results reported in publication PMC3142112, “Rationally Designed Turn Promoting Mutation in the Amyloid-β Peptide Sequence Stabilizes Oligomers in Solution” (PLoS ONE, 2011).

Assays:
Assay type in all cases: physicochemical
[1] = Atomic force microscopy of peptide preparations; details: 25 µM peptide adsorbed 10 min onto silicon wafers, tapping mode
Procedure: High-resolution analysis of the peptide solution preparations were carried out using atomic force microscopy (AFM).
AFM topography images were acquired in the light tapping mode regime using a Multimode AFM (Veeco, USA). Resonant frequencies of the uncoated silicon tips (MikroMasch, USA) were roughly 150 kHz, with scan rates around 5–8 µm/s. Peptide samples were prepared using the protocol described above and diluted to 25 µM before application. Peptide solutions were adsorbed by incubating onto Pirahna cleaned silicon wafers with molecular smoothness (∼1 Å RMS roughness) as determined by AFM. After incubating for 10 min, the wafers are gently washed repeatededly with MilliQ water.

[2] = Thioflavin T fluorescence (aggregation / mature fibril formation); details: 25 µM fibrils (Aβ42WT) or SEC-eluted mutant oligomers, 5 µM ThT, 2 h incubation, excitation 440 nm, emission 480 nm, 25°C
Procedure: Thioflavin T fluorescence was used to assess aggregation and mature fibril formation as β-sheet content is directly correlated with fluorescence intensity of the dye.
(§1) Mean residue ellipticity (θ) was determined according to the equation θ = θObs • MRW/(10 • l • c); where θObs is observed ellipticity, MRW is mean residue weight of the peptide, c is peptide concentration (g/L), and l is optical path length (cm). The thioflavin T (ThT) binding studies of Aβ42WT and mutant peptides were carried out by incubating precipitated fibrils of the Aβ42WT or eluted oligomer preparation from the SEC column. The 25 µM amyloid fibrils (Aβ42WT) or oligomers of mutant were mixed with 5 µM of ThT dye concentration. After 2 h incubation, the fluorescence of the sample solutions were recorded by exciting at 440 nm and the intensity at 480 nm is monitored using Perkin-Elmer LC 55B spectrofluorimeter. The bandwidths of excitation/emission wavelengths were 5 nm/each.

[3] = One-dimensional 1H NMR of peptide preparations (soluble versus aggregated state); details: 10% DMSO/PBS
Procedure: All peptides were used as supplied. Solution samples of the peptides were prepared as follows. Peptides were dissolved in 1,1,1,3,3,3-hexafluoro-2-propanol (HFIP) to concentrations of 1 mM HFIP, evaporated over nitrogen, and then dried in a Savant Speed Vac for 1 hr. The resultant peptide films were further kept under vacuum for a few hours to remove solvent traces. The films were stored at −80°C until use. Peptide films were dissolved to ∼0.5 mM concentrations in 10% d6-DMSO/10 mM PBS buffer to a final pH of 7.2. The solutions were incubated at 4°C for 12 hours, and then transferred to 37°C for 4 hours. The resulting solutions were centrifuged at 13000 rpm in a desktop centrifuge (Eppendorf) at 4°C for 30 min to remove any precipitated gel-form of the peptides. After centrifugation, the peptide concentrations were adjusted to 0.4 mM (concentrations were checked by UV visible spectroscopy), 0.05% sodium azide added as a bacteriostat and transferred to 5 mm NMR tubes. […]
NMR spectra were acquired at the Stanford Magnetic Resonance Laboratory on a Bruker Avance 500 MHz spectrometer running TopSpin v1.3 and equipped with a 5 mm H{CN} Z-axis gradient CryoProbe. […] The data was processed in TopSpin and analyzed with SPARKY [38].

[4] = Circular dichroism spectroscopy (conformation / fibril development)
Procedure: Conformational analyses of the mutant and Aβ42WT peptides were also carried out by Circular Dichroism (CD) spectroscopy.
The fibrils from the Aβ42WT preparation were centrifuged at 12000 rpm for 15 min to separate from any remaining monomer and the pellet was re-suspended in 10 mM phosphate pH 7.2 for CD measurement. CD measurements were performed using a 0.1 mm path length quartz cell in an Aviv 62A DS Circular Dichroism spectrometer (Aviv Associates, Lakewood, NJ) at 22°C.
as §1, with “The” for “Mean residue ellipticity (θ) was determined according to the equation θ = θObs • MRW/(10 • l • c); where θObs is observed ellipticity, MRW is mean residue weight of the peptide, c is peptide concentration (g/L), and l is optical path length (cm). The”

With “Aβ42WT: wild type form of Aβ42, recombinant purified, unlabeled and 15N-labeled, from rPeptide” the “mean globular structure height (AFM)” value [1] was 4.32 nm, the “Thioflavin T fluorescence of Aβ42WT compared to Aβ42Nle35p37” value [2] was “about four” and the “species formed in preparation” value ([3]; 0.4 mM) was “formed fibrils”. For the same substance, the “state in solution by 1D 1H NMR (amide/aromatic region)” value ([3]; pH 7.2, 25°C, samples prepared in the same manner) was “very little observable signal”, the “conformation by CD spectrum” value ([4]; 0.1 mm path length cell, WT fibril pellet in 10 mM phosphate pH 7.2, mutant SEC-eluted) was “β-sheet rich, mature fibrils” and the “period over which aggregate develops into β-sheet rich, mature fibrils (CD)” value ([4]; PBS buffer, absorbance at ∼220 nm) was 12 h.
